Biological target: human IgE (human) (UniProt P01854)
Assay: phage ELISA, solution competition: Fab-phage incubated with serially diluted IgE, unbound phage captured on IgE-coated wells; IC50 used as affinity estimate

Chain of human IgE (human) (P01854 other isoform, or with tags, fused parts or gaps): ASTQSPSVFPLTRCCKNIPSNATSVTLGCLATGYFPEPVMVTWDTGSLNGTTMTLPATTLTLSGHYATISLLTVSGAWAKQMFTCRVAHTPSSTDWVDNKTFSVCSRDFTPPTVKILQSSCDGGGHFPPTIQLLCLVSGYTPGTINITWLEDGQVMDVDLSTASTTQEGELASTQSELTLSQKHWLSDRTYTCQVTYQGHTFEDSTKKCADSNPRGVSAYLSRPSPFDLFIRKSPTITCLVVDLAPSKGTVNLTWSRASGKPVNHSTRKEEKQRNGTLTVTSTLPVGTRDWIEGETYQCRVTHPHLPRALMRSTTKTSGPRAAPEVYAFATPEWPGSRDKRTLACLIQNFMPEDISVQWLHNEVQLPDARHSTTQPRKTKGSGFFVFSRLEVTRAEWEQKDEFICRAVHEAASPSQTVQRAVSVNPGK

## Mae11-based hypervariable region graft with S34K and W35L in CDR-H1 of the VH domain (Fab displayed on phage)
  IC50: 4 nM
